Test results: paper doi:10.1101/2020.03.10.985069 (2020)

Key:
[1] = biological target: IL-10 variant B11, recombinant monomer (human (by the printed UniProt entry …, UniProt P22301 19-178)); experiment: SPR
[2] = biological target: high affinity IL-10 monomer R5A11M, recombinant (human (by the printed UniProt entry …, UniProt P22301 19-178)); experiment: SPR
[3] = biological target: IL-10 variant A11, recombinant monomer (human (by the printed UniProt entry …, UniProt P22301 19-178)); experiment: SPR
R5A11/IL-10Rα complex = R5A11/IL-10Rα complex (human (by the printed UniProt entry …, UniProt P22301 19-178; Q13651 22-235); experiment: SPR; pre-bound to IL-10Rα
B11/IL-10Rα complex = B11/IL-10Rα complex (human (by the printed UniProt entry …, UniProt P22301 19-178; Q13651 22-235); experiment: SPR; pre-bound to IL-10Rα
A11/IL-10Rα complex = A11/IL-10Rα complex (human (by the printed UniProt entry …, UniProt P22301 19-178; Q13651 22-235); experiment: SPR; pre-bound to IL-10Rα

- Kd [1]: 9400 nM
- Kd [2]: 8900 nM
- Kd [3]: 2400 nM
- Kd (R5A11/IL-10Rα complex): 100 nM
- Kd (B11/IL-10Rα complex): 65 nM
- Kd (A11/IL-10Rα complex): 23 nM
B1: IL-10Rβ ectodomain (amino acids 20-220), biotinylated (receptor)
chain: MVPPPENVRMNSVNFKNILQWESPAFAKGNLTFTAQYLSYRIFQDKCMNTTLTECDFSSLSKYGDHTLRVRAEFADEHSDWVNITFCPVDDTIIGPPGMQVEVLADSLHMRFLAPKIENEYETWTMKNVYNSWTYNVQYWKNGTDEKFQITPQYDFEVLRNLEPWTTYCVQVRGFLPDRNKAGEWSEPVCEQTTHDETVPS
modifications: biotin on the biotin acceptor peptide (BirA ligase)
